Data published in US7838288B2, “Modulators of odorant receptors” (Duke University, priority 2004, dated 2010).

Key:
23-1 = assay: Living-cell staining of cell-surface 23-1; type: cell-based, mouse; settings: accessory protein co-transfected in 293T cells
Method: 293T cells were maintained in minimal essential medium containing 10% fetal bovine serum (M10). Lipofectamine 2000 (Invitrogen) was used for transfection. In live-cell staining, 16 hours after transfection, cells were incubated in M10 containing anti rhodopsin antibody, 4D2 (see, e.g., Laird, D. W., and Molday, R. S. (1988) Invest Opthalmol V is Sci 29, 419-428; herein incorporated by reference in its entirety) and 15 mM NaN3 at 4 degrees C. for 1 hour. After washing, cells were incubated with Cy3-conjugated anti mouse IgG (Jackson Immunologicals), washed and mounted. For FACS analysis, 4D2 and PE-conjugated anti mouse IgG (Jackson Immunologicals) were used to monitor the Rho tagged receptor expression. Anti HA rabbit antibodies (Sigma) and Alexa 488 conjugated anti rabbit IgG (Molecular Probes) was used to stain the HA-β2 adrenergic receptor. To establish the Hana3a cells, 1 ug/ml of puromycin was used for selection. 96 colonies were picked and assayed using luciferase assay using OREG.

[1] = target: T1, mouse odorant receptor OREG (Mus musculus, UniProt Q920P2); assay: CRE-luciferase reporter gene assay, OREG; type: cell-based; settings: 293T cells; compared to OR alone or control pCI
T1 construct: expressed in transfected cells; host or cells: 293T cells (with or without co-transfected REEP1/RTP1/RTP2) and Hana3A cells (293T stably expressing mouse REEP1, RTP1, RTP2, Galpha-olf)
T1 sequence (Q920P2 1-313): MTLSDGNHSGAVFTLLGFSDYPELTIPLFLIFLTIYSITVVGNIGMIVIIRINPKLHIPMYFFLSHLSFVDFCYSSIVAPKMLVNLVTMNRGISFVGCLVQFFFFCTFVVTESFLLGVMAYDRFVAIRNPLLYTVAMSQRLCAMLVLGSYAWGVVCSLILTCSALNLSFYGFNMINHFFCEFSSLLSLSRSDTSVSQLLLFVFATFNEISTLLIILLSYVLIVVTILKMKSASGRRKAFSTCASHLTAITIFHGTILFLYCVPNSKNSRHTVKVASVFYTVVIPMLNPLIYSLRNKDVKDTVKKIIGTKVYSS
In short: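 293T-derived cells stably expressing REEP1, RTP1, RTP2 and Gαolf, transfected with OREG, CRE-luciferase and SV40-Renilla control. Odorant applied in CD293 medium for 10 h or 4 h at 37 degrees C. Output is firefly luminescence minus no-odorant value, normalized to Renilla.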

MOR23-1 = assay: CRE-luciferase reporter gene assay, MOR23-1; type: cell-based, mouse; settings: 293T cells expressing RTP1 variant
Method: Four ORs (S6/79, S18, S46 and S50) previously assayed using other techniques (see, e.g., Malnic, B., et al. (1999) Cell 96, 713-723; herein incorporated by reference in its entirety) were tested against an assay panel of aliphatic alcohols, aldehydes and acids and some other odorants. Additionally, five “orphan” class I ORs (MOR23-1, MOR31-4, MOR31-6, MOR32-5 and MOR32-11) whose cognate ligands were unknown were tested. At a suprathreshold concentration of 100 uM, all these ORs were odorant selective, responding to only a small subset of the odorants tested (see FIG. 11A). This specificity was retained at lower, more physiologically relevant concentrations. Many of these ORs responded to odorants present in micromolar concentrations. The cell-surface expression of these ORs by living-cell immunofluorescence were evaluated. Some ORs (S18, MOR31-4, MOR31-6 and MOR32-5) were strongly expressed while other ORs (S6, S50, MOR23-1, MOR32-11) were weakly expressed (see FIG. 12). […]
Dual-Glo system (Promega) for luciferase assay was used. […] Luminescence was measured using Wallac Victor 1420 (Perkin-Elmer). Normalized luciferase activity was calculated as [Luc (N)-Luc (0)]/RL (N), where Luc (N)=Luminescent count of a certain well, Luc (0)=Luminescent count without odorant for each OR, and RL (N)=Luminescent count of Renilla Luciferase of each well. […]

B1: RTP1-A1: RTP1 variant from deleting portions of RTP1-A; murine SEQ ID NO: 46, human SEQ ID NO: 47 (protein, listed as Mus musculus)
chain: MCKSVTTGEWKKVFYEKMEEVKPADSWDFIIDPNLKHNVLAPGWKQYLELHASGRFHCSWCWHTWQSPHVVILFHMYLDKAQRAGSVRMRVFKQLCYECGTARLDESSMLEENIESLVDNLITSLREQCYGERGGHYRIHVASRQDNRRHRGEFCEACQEGIVHWKPSEKLLEEEATTYTFSRAPSPTKPQAETGSGCNFCSIPWCLFWATVLMLIIYLQFSFRTSV
cell-surface expression of 23-1 (23-1): Increased cell-surface staining | OREG activity by luciferase, accessory protein co-expressed [1]: Increased enhancement | 23-1 activity as indicated by luciferase expression (MOR23-1): Increased enhancement
